Laboratory results published in patent US20090042785A1 (Pieris, published 2009).

Experiments:
[1] = biological target: T1, human CTLA-4-Fc (Chimerigen) (human, UniProt P16410 36-161; P01857 99-330 = IgG part, limits assumed); assay: SPR as in Example 9
T1 construct: extracellular domain;domain: Fc portion; Bought protein; also called hCTLA-4-Fc; huCTLA-4-Ig
Target sequence in this assay (P16410 other isoform, or with tags, fused parts or gaps mutant limits assumed): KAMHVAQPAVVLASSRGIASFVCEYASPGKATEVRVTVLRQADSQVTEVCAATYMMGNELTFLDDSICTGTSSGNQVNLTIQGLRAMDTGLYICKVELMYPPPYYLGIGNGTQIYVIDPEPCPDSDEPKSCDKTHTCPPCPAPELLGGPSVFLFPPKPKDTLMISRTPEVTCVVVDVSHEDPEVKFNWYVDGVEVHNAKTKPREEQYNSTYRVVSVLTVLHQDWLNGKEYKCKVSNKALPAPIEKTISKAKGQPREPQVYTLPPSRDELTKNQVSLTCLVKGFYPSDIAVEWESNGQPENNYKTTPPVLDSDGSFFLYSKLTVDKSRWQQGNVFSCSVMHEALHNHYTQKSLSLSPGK

[2] = biological target: mCTLA-4-Fc (R&D Systems) (mouse, UniProt P09793 36-162); assay: SPR as in Example 9
[3] = biological target: T1, human CTLA-4-Fc (Chimerigen); assay: SPR-Affinity of the monomer towards hCTLA-4-Fc
Target sequence in this assay (P16410 other isoform, or with tags, fused parts or gaps mutant limits assumed): as above

[4] = biological target: T1, human CTLA-4-Fc (Chimerigen); assay: FACS competition: inhibition of 2.5 nM hCTLA-4 Fc binding to Raji cells (B7.1, B7.2)
[5] = biological target: T2, mouse CTLA-4 Fc (Chimerigen) (mouse, UniProt P09793 36-161); assay: FACS competition: inhibition of 2.5 nM mCTLA-4 Fc binding to Raji cells (B7.1, B7.2)
T2 construct: also called muCTLA-4-Ig; muCTLA-4-Fc; not shown: Fc part not described; detected with anti-mouse IgG-phycoerythrin

Sequence of mCTLA-4-Fc (R&D Systems) (P09793 whole entry): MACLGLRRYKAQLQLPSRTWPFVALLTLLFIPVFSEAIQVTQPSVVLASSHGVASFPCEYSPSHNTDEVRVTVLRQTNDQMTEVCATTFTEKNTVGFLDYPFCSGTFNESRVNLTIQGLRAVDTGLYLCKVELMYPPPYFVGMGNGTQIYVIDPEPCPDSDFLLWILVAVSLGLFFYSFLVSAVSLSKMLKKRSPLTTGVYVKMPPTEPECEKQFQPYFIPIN

B1: hNGAL mutein S140.4-O10 without T7 tag (designed binder)
chain: QDSTSDLIPAPPLSKVPLQQNFQDNQFHGKWYVVGLAGNRILRDDQHPMNMYATIYELKEDKSYNVTSVISSHKKCEYTIATFVPGSQPGEFTLGNIKSYGDKTSYLVRVVSTDYNQYAVVFFKLAEDNAEFFAITIYGRTKELASELKENFIRFSKSLGLPENHIVFPVPIDQCIDG
notes: also called S140.4-O10 (-T7 tag); S140.4-O10(-T7)
A Kd [1] of 3.9 nM, a koff [1] of 0.000108 s⁻¹ and a kon [1] of 27700 M⁻¹ s⁻¹ were found for B1 in this work. The Kd [2] was 15.3 nM, the koff [2] was 0.000416 s⁻¹ and the kon [2] was 27200 M⁻¹ s⁻¹. The Kd [3] was 3 nM, the IC50 [4] was 2.5 nM and the IC50 [5] was 15.5 nM.
